Measurements: paper PMC6615864, “Genetic interactions of G-quadruplexes in humans”

Key:
[1] = molecular target: T1, DDX42 (Homo sapiens, UniProt Q86XP3 1-938); assay: ELISA; 100 mM KCl; apparent Kd; ELISA: 50 mM K2HPO4 pH 7.4, 100 mM KCl (or 100 mM LiCl), 3% BSA block, 0.1% Tween-20 washes; blocking at room temperature, DDX42 1 h; 50 nM biotin-oligo coating; oligos annealed in 10 mM Tris-HCl pH 7.4, 100 mM KCl; details: protein: commercial; tags: N-terminal GST; label: 5' biotin; parallel G4 (CD verified)
T1 sequence: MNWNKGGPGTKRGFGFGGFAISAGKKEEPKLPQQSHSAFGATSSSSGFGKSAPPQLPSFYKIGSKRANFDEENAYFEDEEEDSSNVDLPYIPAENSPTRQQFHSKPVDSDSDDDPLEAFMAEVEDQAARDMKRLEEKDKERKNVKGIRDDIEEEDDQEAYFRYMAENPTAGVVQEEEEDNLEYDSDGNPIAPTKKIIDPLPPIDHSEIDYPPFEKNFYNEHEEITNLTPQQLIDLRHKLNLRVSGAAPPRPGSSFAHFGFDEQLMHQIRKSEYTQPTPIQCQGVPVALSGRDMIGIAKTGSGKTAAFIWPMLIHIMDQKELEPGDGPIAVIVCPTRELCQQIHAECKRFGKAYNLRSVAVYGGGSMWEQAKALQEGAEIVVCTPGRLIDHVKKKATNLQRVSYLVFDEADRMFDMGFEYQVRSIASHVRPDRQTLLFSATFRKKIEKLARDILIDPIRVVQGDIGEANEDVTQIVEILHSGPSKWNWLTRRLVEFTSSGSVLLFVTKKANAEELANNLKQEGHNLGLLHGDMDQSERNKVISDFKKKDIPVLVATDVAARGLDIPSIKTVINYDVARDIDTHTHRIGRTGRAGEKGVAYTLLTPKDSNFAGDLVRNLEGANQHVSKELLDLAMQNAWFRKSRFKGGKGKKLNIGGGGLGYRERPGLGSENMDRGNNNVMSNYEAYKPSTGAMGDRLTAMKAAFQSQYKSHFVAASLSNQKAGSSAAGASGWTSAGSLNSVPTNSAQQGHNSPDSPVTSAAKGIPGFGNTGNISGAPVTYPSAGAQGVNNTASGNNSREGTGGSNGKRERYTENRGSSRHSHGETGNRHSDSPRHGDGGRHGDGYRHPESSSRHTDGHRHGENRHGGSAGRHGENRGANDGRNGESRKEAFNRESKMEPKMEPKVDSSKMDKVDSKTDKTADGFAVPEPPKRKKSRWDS

[2] = molecular target: T1, DDX42; assay: ELISA; 100 mM KCl; apparent Kd, above the 200 nM top concentration; ELISA: 50 mM K2HPO4 pH 7.4, 100 mM KCl (or 100 mM LiCl), 3% BSA block, 0.1% Tween-20 washes; blocking at room temperature, DDX42 1 h; 50 nM biotin-oligo coating; oligos annealed in 10 mM Tris-HCl pH 7.4, 100 mM KCl; details: protein: commercial; tags: N-terminal GST; label: 5' biotin; parallel G4 (CD verified)
[3] = molecular target: T1, DDX42; assay: ELISA; not detectable up to 200 nM DDX42; ELISA: 50 mM K2HPO4 pH 7.4, 100 mM KCl (or 100 mM LiCl), 3% BSA block, 0.1% Tween-20 washes; blocking at room temperature, DDX42 1 h; 50 nM biotin-oligo coating; oligos annealed in 10 mM Tris-HCl pH 7.4, 100 mM KCl; details: protein: commercial, tags: N-terminal GST, label: 5' biotin

B1: NRAS G4 (rG4) (structured_RNA)
RNA: UGUGGGAGGGGCGGGUCUGGGUGC
For B1, the Kd [1] was 71.1 ± 3.5 nM.

B2: Myc G4 (dG4) (structured_DNA)
DNA: TGAGGGTGGGTAGGGTGGGTAA
B2 showed a Kd [2] of 233 ± 23.5 nM.

B3: NRAS mut (rG4 mut) (ssRNA)
RNA: UGUAGAAAGAGCAGAUCUAGAUG
B3: no binding ([3]; no G4).

B4: Stem loop (RNA hairpin) (structured_RNA)
RNA: ACAGGGCUCCGCGAUGGCGGAGCCCAA
B4: no binding ([3]; hairpin).
